B1: UbiA prenyltransferase domain-containing protein 1 (Homo sapiens), Q9Y5Z9 (parent)
chain: MAASQVLGEKINILSGETVKAGDRDPLGNDCPEQDRLPQRSWRQKCASYVLALRPWSFSASLTPVALGSALAYRSHGVLDPRLLVGCAVAVLAVHGAGNLVNTYYDFSKGIDHKKSDDRTLVDRILEPQDVVRFGVFLYTLGCVCAACLYYLSPLKLEHLALIYFGGLSGSFLYTGGIGFKYVALGDLIILITFGPLAVMFAYAIQVGSLAIFPLVYAIPLALSTEAILHSNNTRDMESDREAGIVTLAILIGPTFSYILYNTLLFLPYLVFSILATHCTISLALPLLTIPMAFSLERQFRSQAFNKLPQRTAKLNLLLGLFYVFGIILAPAGSLPKI

Variants of: B1
Conditions: with rash_human HRAS

Variant | effect of a mutation on the interaction
MAASQVLGEKINILSGETVKAGDRDPLGNDCPEQDRLPQRSWRQKCASYVLALAAAAFSASLTPVALGSALAYRSHGVLDPRLLVGCAVAVLAVHGAGNLVNTYYDFSKGIDHKKSDDRTLVDRILEPQDVVRFGVFLYTLGCVCAACLYYLSPLKLEHLALIYFGGLSGSFLYTGGIGFKYVALGDLIILITFGPLAVMFAYAIQVGSLAIFPLVYAIPLALSTEAILHSNNTRDMESDREAGIVTLAILIGPTFSYILYNTLLFLPYLVFSILATHCTISLALPLLTIPMAFSLERQFRSQAFNKLPQRTAKLNLLLGLFYVFGIILAPAGSLPKI [R54A;P55A;W56A;S57A] | disrupting interaction
MAASQVLGEKINILSGETVKAGDRDPLGNDCPEQDRLPQRSWRQKCASYVLALRPWSFSASLTPVALGSALAYRSHGVLDPRLLVGCAVAVLAVHGAGNLVSTYYDFSKGIDHKKSDDRTLVDRILEPQDVVRFGVFLYTLGCVCAACLYYLSPLKLEHLALIYFGGLSGSFLYTGGIGFKYVALGDLIILITFGPLAVMFAYAIQVGSLAIFPLVYAIPLALSTEAILHSNNTRDMESDREAGIVTLAILIGPTFSYILYNTLLFLPYLVFSILATHCTISLALPLLTIPMAFSLERQFRSQAFNKLPQRTAKLNLLLGLFYVFGIILAPAGSLPKI [N102S] | disrupting interaction
